B1: Activin A (ligand)
chain: GLECDGKVNICCKKQFFVSFKDIGWNDWIIAPSGYHANYCEGECPSHIAGTSGSSLSFHSTVINHYRMRGHSPFANLKSCCVPTKLRPMSMLYYDDGQNIIKKDIQNMIVEECGCS
B2: ActRIIB-G1Fc (SEQ ID NO: 519) (Fc fusion)
chain: GRGEAETRECIYYNANWELERTNQSGLERCEGEQDKRLHCYASWRNSSGTIELVKKGCWLDDFNCYDRQECVATEENPQVYFCCCEGNFCNERFTHLPEAGGPEVTYEPPPTAPTGGGTHTCPPCPAPELLGGPSVFLFPPKPKDTLMISRTPEVTCVVVDVSHEDPEVKFNWYVDGVEVHNAKTKPREEQYNSTYRVVSVLTVLHQDWLNGKEYKCKVSNKALPVPIEKTISKAKGQPREPQVYTLPPSREEMTKNQVSLTCLVKGFYPSDIAVEWESNGQPENNYKTTPPVLDSDGSFFLYSKLTVDKSRWQQGNVFSCSVMHEALHNHYTQKSLSLSPGK
B3: BMP9 (ligand)
chain: SAGAGSHCQKTSLRVNFEDIGWDSWIIAPKEYEAYECKGGCFFPLADDVTPTKHAIVQTLVHLKFPTKVGKACCVPTKLSPISVLYKDDMGVPTLKYHYEGMSVAECGCR
B4: GDF11 (ligand)
chain: NLGLDCDEHSSESRCCRYPLTVDFEAFGWDWIIAPKRYKANYCSGQCEYMFMQKYPHTHLVQQANPRGSAGPCCTPTKMSPINMLYFNDKQQIIYGKIPGMVVDRCGCS
B5: BMP10 (ligand)
chain: NAKGNYCKRTPLYIDFKEIGWDSWIIAPPGYEAYECRGVCNYPLAEHLTPTKHAIIQALVHLKNSQKASKACCVPTKLEPISILYLDKGVVTYKFKYEGMAVSECGCR

Experiments:
L79K / F82K = assay: SPR; 37C
K55A / F82I = assay: SPR; 37C
K74A = assay: SPR; 37C
L38Q = assay: SPR; 25C
Q98L = assay: SPR; 25C
Q98I = assay: SPR; 25C
N35Q = assay: SPR; 25C
Q98K = assay: SPR; 25C
Q98R = assay: SPR; 25C
N35F = assay: SPR; 25C
L38R = assay: SPR; 25C
Q98V = assay: SPR; 25C
Q98A = assay: SPR; 25C
L38D = assay: SPR; 25C
activin B = biological target: T1, activin B (UniProt P09529 293-407); assay: SPR; 37C
T1 chain: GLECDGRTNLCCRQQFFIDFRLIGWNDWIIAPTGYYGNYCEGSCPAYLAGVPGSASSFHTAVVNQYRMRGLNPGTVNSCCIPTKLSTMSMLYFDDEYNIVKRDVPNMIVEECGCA

GDF11 = biological target: B4; assay: SPR; 37C
activin A = biological target: T2, activin A (UniProt P08476 311-426); assay: SPR; 37C
T2 chain: B1 chain

GDF8 = GDF8 (UniProt O14793 267-375); assay: SPR; 37C
BMP10 = biological target: B5; assay: SPR; 37 C
BMP9 = biological target: B3; assay: SPR; 37 C
BMP6 = biological target: T3, BMP6 (UniProt P22004 382-513); assay: SPR; 37 C
T3 chain: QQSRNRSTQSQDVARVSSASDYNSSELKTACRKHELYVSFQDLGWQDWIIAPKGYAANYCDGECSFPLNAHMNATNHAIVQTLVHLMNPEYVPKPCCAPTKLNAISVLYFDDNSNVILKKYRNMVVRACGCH

Sequence of GDF8 (O14793 267-375): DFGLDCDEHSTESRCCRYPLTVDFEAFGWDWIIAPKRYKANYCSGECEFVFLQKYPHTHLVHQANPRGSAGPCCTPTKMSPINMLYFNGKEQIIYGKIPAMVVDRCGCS

Row | Binder | Kd (L79K / F82K) | Kd (K55A / F82I) | Kd (K74A) | Kd (L38Q) | Kd (Q98L) | Kd (Q98I) | Kd (N35Q) | Kd (Q98K) | Kd (Q98R) | Kd (N35F) | Kd (L38R) | Kd (Q98V) | Kd (Q98A) | Kd (L38D) | other results
1 | B1 | 0.64 nM | 0.047 nM | 0.034 nM | 0.2 nM | 0.22 nM | 0.157 nM | 0.32 nM | 0.145 nM | 0.3 nM | 0.29 nM | 0.23 nM | 0.16 nM | 0.155 nM | 0.23 nM | 
2 | B2 |  |  |  |  |  |  |  |  |  |  |  |  |  |  | Kd (activin B): 0.0225 nM; Kd (GDF11): 0.00491 nM; Kd (activin A): 0.0135 nM; Kd (GDF8): 0.0795 nM; Kd (BMP10): 0.00841 nM; Kd (BMP9): 0.0831 nM; Kd (BMP6): 0.431 nM
3 | B3 |  | 0.134 nM | 0.36 nM | 0.033 nM | 0.071 nM | 0.059 nM |  | 0.069 nM | 0.074 nM |  | 0.05 nM | 0.047 nM | 0.043 nM | 0.063 nM | 
4 | B4 | 1.6 nM | 0.09 nM | 0.43 nM | 0.021 nM | 0.043 nM | 0.049 nM | 0.02 nM | 0.037 nM | 0.02 nM | 0.017 nM | 0.007 nM | 0.033 nM | 0.037 nM | 0.03 nM | 
5 | B5 | 0.068 nM | 0.007 nM | 0.033 nM | 0.089 nM | 0.065 nM | 0.21 nM | 0.27 nM | 0.068 nM | 0.32 nM | 0.22 nM | 0.11 nM | 0.048 nM | 0.21 nM | 0.15 nM | 
